Among the targets are HLA-A*11:01; HLA-A*03:01; HLA-B*07:02.
Common to all, as to test: IEDB peptide-MHC binding, purified MHC/competitive/radioactivity; ≥ and ≤ were set here for values at or beyond the usual limits of such assays
Common to all, as to details: source organism: Homo sapiens

In the case of AVVLASLIYR, in the experiment with HLA-A*11:01, the IC50 is 3.5 nM.
With GTQCALTRR, the IC50 in the experiment with HLA-A*11:01 was found to be 31.3 nM.
As for HTMEVTVYHR, the IC50 in the experiment with HLA-A*03:01 was 179 nM.
Consider LIGCWYCRRR, for which the IC50 in the experiment with HLA-A*03:01 is 179 nM.
For LPHSSSHWL, the IC50 with HLA-B*07:02 is 17.2 nM.
As for QTSAGHFPR, the IC50 with HLA-A*11:01 stood at 16.1 nM.
Turning to SIFEQWLRR, the IC50 in the experiment with HLA-A*11:01 was found to be 4.6 nM; in the experiment with HLA-A*03:01, 45.5 nM.
As to SSSHWLRLPR, the IC50 with HLA-A*11:01 amounted to 45.5 nM.
VVLASLIYR: the IC50 stood at 3.6 nM in the experiment with HLA-A*11:01 and 17.9 nM in the experiment with HLA-A*03:01.
Taken in the same sequence, the figures for VVLASLIYRR were 80.6 nM and 161 nM.
Taken in the same sequence, the figures for YMVPFIPLYR were 38.5 nM and 26.3 nM.

The values above are taken from the Immune Epitope Database (IEDB).
